# Numbering of substitutions follows the chain as printed. In names and notes the source's numbering stands.
# B1: dBBDu183H L100dN / dBBDu072L (antibody, name in Kabat numbering, V domains shown)
# VH: QVQLVESGGGLVQPGRSLRLSCAASGFTFSNAWMHWVRQAPGKGLEWVAQIKDKGNAYAAYYAPSVKGRFTISRDDSKNSIYLQMNSLKTEDTAVYYCHYVHYASASTVNPAFGVDAWGQGTTVTVSS
# VL: DIVMTQSPLSLPVTPGEPASISCQASQELVHMNRNTYLHWYQQKPGQAPRLLIYKVSNRFPGVPDRFSGSGSGTDFTLKISRVEAEDVGVYYCAQGTSVPFTFGQGTKLEIK
# B2: dBBDu183H A98D / dBBDu072L (antibody, name in Kabat numbering, V domains shown)
# VH: B1 VH with A104D, N110L
# VL: B1 VL
# B3: dBBDu183H G100hT / dBBDu072L (antibody, name in Kabat numbering, V domains shown)
# VH: B1 VH with N110L, G114T
# VL: B1 VL
# B4: dBBDu183H A98T / dBBDu072L (antibody, name in Kabat numbering, V domains shown)
# VH: B1 VH with A104T, N110L
# VL: B1 VL
# B5: dBBDu183H G100hD / dBBDu072L (antibody, name in Kabat numbering, V domains shown)
# VH: B1 VH with N110L, G114D
# VL: B1 VL
# B6: dBBDu183H T100bD / dBBDu072L (antibody, name in Kabat numbering, V domains shown)
# VH: B1 VH with T108D, N110L
# VL: B1 VL
# B7: dBBDu183H A98Q / dBBDu072L (antibody, name in Kabat numbering, V domains shown)
# VH: B1 VH with A104Q, N110L
# VL: B1 VL
# B8: dBBDu183H V100iS / dBBDu072L (antibody, name in Kabat numbering, V domains shown)
# VH: B1 VH with N110L, V115S
# VL: B1 VL
# B9: dBBDu183H H96Q / dBBDu072L (antibody, name in Kabat numbering, V domains shown)
# VH: B1 VH with H102Q, N110L
# VL: B1 VL
# B10: dBBDu183H V100iN / dBBDu072L (antibody, name in Kabat numbering, V domains shown)
# VH: B1 VH with N110L, V115N
# VL: B1 VL
# B11: dBBDu183H V95D / dBBDu072L (antibody, name in Kabat numbering, V domains shown)
# VH: B1 VH with V101D, N110L
# VL: B1 VL
# B12: dBBDu183H H96D / dBBDu072L (antibody, name in Kabat numbering, V domains shown)
# VH: B1 VH with H102D, N110L
# VL: B1 VL
# B13: dBBDu183H G100hS / dBBDu072L (antibody, name in Kabat numbering, V domains shown)
# VH: B1 VH with N110L, G114S
# VL: B1 VL
# B14: dBBDu183H G100hN / dBBDu072L (antibody, name in Kabat numbering, V domains shown)
# VH: B1 VH with N110L, G114N
# VL: B1 VL
# B15: dBBDu183H Y97T / dBBDu072L (antibody, name in Kabat numbering, V domains shown)
# VH: B1 VH with Y103T, N110L
# VL: B1 VL
# B16: dBBDu183H S100aQ / dBBDu072L (antibody, name in Kabat numbering, V domains shown)
# VH: B1 VH with S107Q, N110L
# VL: B1 VL
# B17: dBBDu183H V95S / dBBDu072L (antibody, name in Kabat numbering, V domains shown)
# VH: B1 VH with V101S, N110L
# VL: B1 VL
# B18: dBBDu183H V95T / dBBDu072L (antibody, name in Kabat numbering, V domains shown)
# VH: B1 VH with V101T, N110L
# VL: B1 VL
# B19: dBBDu183H S100aD / dBBDu072L (antibody, name in Kabat numbering, V domains shown)
# VH: B1 VH with S107D, N110L
# VL: B1 VL
# B20: dBBDu183H H93D / dBBDu072L (antibody, name in Kabat numbering, V domains shown)
# VH: B1 VH with H99D, N110L
# VL: B1 VL
# B21: dBBDu183H H93T / dBBDu072L (antibody, name in Kabat numbering, V domains shown)
# VH: B1 VH with H99T, N110L
# VL: B1 VL
# B22: dBBDu183H A100fN / dBBDu072L (antibody, name in Kabat numbering, V domains shown)
# VH: B1 VH with N110L, A112N
# VL: B1 VL
# B23: dBBDu183H A102T / dBBDu072L (antibody, name in Kabat numbering, V domains shown)
# VH: B1 VH with N110L, A117T
# VL: B1 VL
# B24: dBBDu183H H96S / dBBDu072L (antibody, name in Kabat numbering, V domains shown)
# VH: B1 VH with H102S, N110L
# VL: B1 VL
# B25: dBBDu183H F100gD / dBBDu072L (antibody, name in Kabat numbering, V domains shown)
# VH: B1 VH with N110L, F113D
# VL: B1 VL
# B26: dBBDu183H A100fT / dBBDu072L (antibody, name in Kabat numbering, V domains shown)
# VH: B1 VH with N110L, A112T
# VL: B1 VL
# B27: dBBDu183H A100D / dBBDu072L (antibody, name in Kabat numbering, V domains shown)
# VH: B1 VH with A106D, N110L
# VL: B1 VL
# B28: dBBDu183H L100dD / dBBDu072L (antibody, name in Kabat numbering, V domains shown)
# VH: B1 VH with N110D
# VL: B1 VL
# B29: dBBDu183H F100gN / dBBDu072L (antibody, name in Kabat numbering, V domains shown)
# VH: B1 VH with N110L, F113N
# VL: B1 VL
# B30: dBBDu183H A102Q / dBBDu072L (antibody, name in Kabat numbering, V domains shown)
# VH: B1 VH with N110L, A117Q
# VL: B1 VL
# B31: dBBDu183H A102N / dBBDu072L (antibody, name in Kabat numbering, V domains shown)
# VH: B1 VH with N110L, A117N
# VL: B1 VL
# B32: dBBDu183H Y97D / dBBDu072L (antibody, name in Kabat numbering, V domains shown)
# VH: B1 VH with Y103D, N110L
# VL: B1 VL
# B33: dBBDu183H L100dT / dBBDu072L (antibody, name in Kabat numbering, V domains shown)
# VH: B1 VH with N110T
# VL: B1 VL
# B34: dBBDu183H G100hQ / dBBDu072L (antibody, name in Kabat numbering, V domains shown)
# VH: B1 VH with N110L, G114Q
# VL: B1 VL
# B35: dBBDu183H Y97S / dBBDu072L (antibody, name in Kabat numbering, V domains shown)
# VH: B1 VH with Y103S, N110L
# VL: B1 VL
# B36: dBBDu183H V95Q / dBBDu072L (antibody, name in Kabat numbering, V domains shown)
# VH: B1 VH with V101Q, N110L
# VL: B1 VL
# B37: dBBDu183H V100cD / dBBDu072L (antibody, name in Kabat numbering, V domains shown)
# VH: B1 VH with V109D, N110L
# VL: B1 VL
# B38: dBBDu183H A100fD / dBBDu072L (antibody, name in Kabat numbering, V domains shown)
# VH: B1 VH with N110L, A112D
# VL: B1 VL
# B39: dBBDu183H V100iQ / dBBDu072L (antibody, name in Kabat numbering, V domains shown)
# VH: B1 VH with N110L, V115Q
# VL: B1 VL
# B40: dBBDu183H A100S / dBBDu072L (antibody, name in Kabat numbering, V domains shown)
# VH: B1 VH with A106S, N110L
# VL: B1 VL
# B41: dBBDu183H A100fQ / dBBDu072L (antibody, name in Kabat numbering, V domains shown)
# VH: B1 VH with N110L, A112Q
# VL: B1 VL
# B42: dBBDu183H S100aT / dBBDu072L (antibody, name in Kabat numbering, V domains shown)
# VH: B1 VH with S107T, N110L
# VL: B1 VL
# B43: dBBDu183H S99D / dBBDu072L (antibody, name in Kabat numbering, V domains shown)
# VH: B1 VH with S105D, N110L
# VL: B1 VL
# B44: dBBDu183H Y97Q / dBBDu072L (antibody, name in Kabat numbering, V domains shown)
# VH: B1 VH with Y103Q, N110L
# VL: B1 VL
# B45: dBBDu183H H93S / dBBDu072L (antibody, name in Kabat numbering, V domains shown)
# VH: B1 VH with H99S, N110L
# VL: B1 VL
# B46: dBBDu183H H93Q / dBBDu072L (antibody, name in Kabat numbering, V domains shown)
# VH: B1 VH with H99Q, N110L
# VL: B1 VL
# B47: dBBDu183H A100T / dBBDu072L (antibody, name in Kabat numbering, V domains shown)
# VH: B1 VH with A106T, N110L
# VL: B1 VL
# Target: Human CD137 ECD (human)
# Assay: SPR, vs parent H183/L072
# Human CD137 ECD (human), sequence (chain, as listed by the source limits assumed): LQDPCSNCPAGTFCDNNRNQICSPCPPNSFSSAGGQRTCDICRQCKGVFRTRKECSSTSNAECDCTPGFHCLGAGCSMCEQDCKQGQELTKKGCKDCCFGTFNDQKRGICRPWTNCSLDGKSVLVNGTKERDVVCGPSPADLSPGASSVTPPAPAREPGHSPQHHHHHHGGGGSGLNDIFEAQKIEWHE
row,fold change of affinity,Binder
1,0 fold,B1
2,0 fold,B2
3,0 fold,B3
4,0 fold,B4
5,0 fold,B5
6,0 fold,B6
7,0 fold,B7
8,0 fold,B8
9,0 fold,B9
10,0 fold,B10
11,0 fold,B11
12,0 fold,B12
13,0 fold,B13
14,0 fold,B14
15,0 fold,B15
16,0 fold,B16
17,0 fold,B17
18,0 fold,B18
19,0 fold,B19
20,0 fold,B20
21,0 fold,B21
22,0 fold,B22
23,0 fold,B23
24,0 fold,B24

row,fold change of affinity,Binder
1,0 fold,B25
2,0 fold,B26
3,0 fold,B27
4,0 fold,B28
5,0 fold,B29
6,0 fold,B30
7,0 fold,B31
8,0 fold,B32
9,0 fold,B33
10,0 fold,B34
11,0 fold,B35
12,0 fold,B36
13,0 fold,B37
14,0 fold,B38
15,0 fold,B39
16,0 fold,B40
17,0 fold,B41
18,0 fold,B42
19,0 fold,B43
20,0 fold,B44
21,0 fold,B45
22,0 fold,B46
23,0 fold,B47
